Results on 9 molecules are retold here after PMC7035337, “Binding of the periplakin linker requires vimentin acidic residues D176 and E187” (Communications Biology, 2020).

The term Kd denotes a measure of binding affinity in units of concentration.

To fix the notation:
T1: periplakin linker domain R1655E/R1656E (human, UniProt O60437 1646-1756, R1655E | R1656E)
T1 construct: human periplakin linker domain, residues K1646-K1756
T1 sequence (looked up): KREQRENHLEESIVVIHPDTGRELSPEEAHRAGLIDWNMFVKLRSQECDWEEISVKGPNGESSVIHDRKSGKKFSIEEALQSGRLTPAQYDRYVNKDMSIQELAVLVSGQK

T2: periplakin linker domain K1687E/R1689E (human, UniProt O60437 1646-1756, K1687E | R1689E)
T2 construct: human periplakin linker domain, residues K1646-K1756
T2 sequence (looked up): T1 sequence (looked up) with E10R, E11R, K42E, R44E

T3: periplakin linker domain R1713E/K1714E (human, UniProt O60437 1646-1756, R1713E | K1714E)
T3 construct: human periplakin linker domain, residues K1646-K1756
T3 sequence (looked up): T1 sequence (looked up) with E10R, E11R, R68E, K69E

T4: periplakin linker domain R1737E/K1741E (human, UniProt O60437 1646-1756, R1737E | K1741E)
T4 construct: human periplakin linker domain, residues K1646-K1756
T4 sequence (looked up): T1 sequence (looked up) with E10R, E11R, R92E, K96E

T5: periplakin linker domain R1713E (human, UniProt O60437 1646-1756, R1713E)
T5 construct: human periplakin linker domain, residues K1646-K1756; also called Periplakin R1713E
T5 sequence (looked up): T1 sequence (looked up) with E10R, E11R, R68E

B1: periplakin linker domain, wild-type (residues K1646-K1756) (domain or fragment, human)
chain: T1 sequence (looked up) with E10R, E11R
notes: human periplakin linker domain, residues K1646-K1756; also called Periplakin Linker Wild-type
B2: periplakin linker domain (K1646–K1756), wild-type (domain or fragment, human, UniProt O60437 1646-1756, looked up)
chain: T1 sequence (looked up) with E10R, E11R
notes: periplakin linker domain, human, residues K1646-K1756; Vector pGEX-6P-1; also called wild-type periplakin linker; WT
B3: periplakin linker domain (K1646–K1756) R1713E (domain or fragment, human, UniProt O60437 1646-1756, looked up)
chain: T1 sequence (looked up) with E10R, E11R, R68E
notes: periplakin linker domain, human, residues K1646-K1756; also called periplakin mutant R1713E; periplakin linker mutant R1713E
B4: periplakin linker domain (K1646–K1756) R1655E/R1656E (domain or fragment, human, UniProt O60437 1646-1756, looked up)
chain: T1 sequence (looked up)
notes: periplakin linker domain, human, residues K1646-K1756
B5: periplakin linker domain (K1646–K1756) R1713E/K1714E (domain or fragment, human, UniProt O60437 1646-1756, looked up)
chain: T1 sequence (looked up) with E10R, E11R, R68E, K69E
notes: as for B4
B6: periplakin linker domain (K1646–K1756) K1687E/R1689E (domain or fragment, human, UniProt O60437 1646-1756, looked up)
chain: T1 sequence (looked up) with E10R, E11R, K42E, R44E
notes: as for B4
B7: periplakin linker domain (K1646–K1756) R1737E/K1741E (domain or fragment, human, UniProt O60437 1646-1756, looked up)
chain: T1 sequence (looked up) with E10R, E11R, R92E, K96E
notes: periplakin linker domain, human, residues K1646-K1756; also called control double mutant
B8: vimentinROD, wild-type (residues T99-I249, coils 1A and 1B) (domain or fragment)
chain: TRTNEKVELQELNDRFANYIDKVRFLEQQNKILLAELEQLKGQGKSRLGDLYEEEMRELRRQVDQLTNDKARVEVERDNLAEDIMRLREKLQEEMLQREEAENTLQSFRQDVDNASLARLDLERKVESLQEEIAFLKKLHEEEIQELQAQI
modifications: NT647 fluorescent dye (Monolith NT His-Tag Labelling Kit RED-tris-NTA)
notes: human vimentin, residues T99-I249; Non-cleavable His tag
B9: desmoplakin linker domain (Q2454–N2565) E2495K/C2497R (domain or fragment, human, UniProt P15924 2454-2565, looked up)
chain: QTSQKNTLRKRRVVIVDPETNKEMSVQEAYKKGLIDYETFKKLREQECEWEEITITGSDGSTRVVLVDRKTGSQYDIQDAIDKGLVDRKFFDQYRSGSLSLTQFADMISLKN
notes: desmoplakin linker domain, human, residues Q2454-N2565

What all share (settings): both partners purified
Assay [1] concerns the target B8. Description: MST; 50 nM NT647-labelled vimentinROD, linker titrated 780 nM to 800 μM; 150 mM NaCl, 20 mM HEPES pH 7.5, 0.015% Tween 20; 25 °C; MST-on time 5 s; one-ligand binding model; single experiments or merged data sets.
The target of assay [2] is B8. The assay can be described thus: MST; as a1 but 10 mM NaCl: 50 nM NT647-labelled vimentinROD, periplakin linker titrated; 25 °C; one-ligand binding model.
Assay [3] concerns the target B8. The assay can be described thus: MST; as a1 but 50 mM NaCl: 50 nM NT647-labelled vimentinROD, periplakin linker titrated; 25 °C; one-ligand binding model.
A further assay deals with T6, vimentinROD E180K (human, UniProt P08670 99-249, E180K, NT647 fluorescent dye (Monolith NT His-Tag Labelling Kit RED-tris-NTA)).
T6 construct: human vimentin, residues T99-I249
Description: MST; 50 nM NT647-labelled vimentinROD, linker titrated 780 nM to 800 μM; 150 mM NaCl, 20 mM HEPES pH 7.5, 0.015% Tween 20; 25 °C; MST-on time 5 s; one-ligand binding model; single experiments or merged data sets.

A further assay concerns the target T7, vimentinROD E172K (human, UniProt P08670 99-249, E172K, NT647 fluorescent dye (Monolith NT His-Tag Labelling Kit RED-tris-NTA)).
T7 construct: human vimentin, residues T99-I249
The description is as above.

Assay [4] has as its target T8, vimentin^ROD (residues T99–I249), wild-type (human, UniProt P08670 99-249, NT647 fluorescent dye (Monolith NT His-Tag Labelling Kit RED-tris-NTA)).
T8 construct: vimentin, human, coils 1A and 1B of the central rod domain, residues T99-I249; Non-cleavable His tag; also called wild-type vimentin^ROD
Description: MST; as the standard MST assay (50 nM labelled vimentin^ROD, linker titrated) but in 10 mM NaCl.

Assay [5] concerns the target T9, vimentin^ROD (residues T99–I249) E172K (human, UniProt P08670 99-249, E172K, NT647 fluorescent dye (Monolith NT His-Tag Labelling Kit RED-tris-NTA)).
T9 construct: vimentin, human, coils 1A and 1B of the central rod domain, residues T99-I249
The assay can be described thus: MST; 50 nM NT647-labelled vimentin^ROD, linker titrated 780 nM to 800 uM; 150 mM NaCl, 20 mM HEPES pH 7.5, 0.015% Tween 20; 25 C; one-site binding model.

The target of assay [6] is T8, vimentin^ROD (residues T99–I249), …. Described as above.
For assay [7], the target named is T10, vimentin^ROD (residues T99–I249) D162K (human, UniProt P08670 99-249, D162K, NT647 fluorescent dye (Monolith NT His-Tag Labelling Kit RED-tris-NTA)).
T10 construct: vimentin, human, coils 1A and 1B of the central rod domain, residues T99-I249
Described as above.

The target of assay [8] is T11, vimentin^ROD (residues T99–I249) E229K (human, UniProt P08670 99-249, E229K, NT647 fluorescent dye (Monolith NT His-Tag Labelling Kit RED-tris-NTA)).
T11 construct: vimentin, human, coils 1A and 1B of the central rod domain, residues T99-I249
The assay is described as above.

The target of assay [9] is T12, vimentin^ROD (residues T99–I249) E180K (human, UniProt P08670 99-249, E180K, NT647 fluorescent dye (Monolith NT His-Tag Labelling Kit RED-tris-NTA)).
T12 construct: vimentin, human, coils 1A and 1B of the central rod domain, residues T99-I249
The assay is described as above.

Assay [10] deals with T13, vimentin^ROD (residues T99–I249) D176K (human, UniProt P08670 99-249, D176K, NT647 fluorescent dye (Monolith NT His-Tag Labelling Kit RED-tris-NTA)).
T13 construct: vimentin, human, coils 1A and 1B of the central rod domain, residues T99-I249; also called D176K vimentin^ROD; vimentin mutant D176K
The description is as above.

For assay [11], the target named is T1, periplakin linker domain R1655E/R1656E. Description: MST; 50 nM NT647-labelled vimentinROD, linker titrated 780 nM to 800 μM; 150 mM NaCl, 20 mM HEPES pH 7.5, 0.015% Tween 20; 25 °C; MST-on time 5 s; one-ligand binding model; single experiments or merged data sets.
Assay [12] deals with T2, periplakin linker domain K1687E/R1689E. The description is as above.
Assay [13] concerns the target T3, periplakin linker domain R1713E/K1714E. Described as above.
Assay [14] addresses T4, periplakin linker domain R1737E/K1741E. The assay is described as above.
Assay [15] deals with T5, periplakin linker domain R1713E. The description is as above.

Changes are numbered by the printed parent chain. Numbers in names are those of the source. Where “and” joins values, the source holds several entries; their conditions need not be identical. Equal values may be shown once.

T7 sequence (P08670 99-249 E172K): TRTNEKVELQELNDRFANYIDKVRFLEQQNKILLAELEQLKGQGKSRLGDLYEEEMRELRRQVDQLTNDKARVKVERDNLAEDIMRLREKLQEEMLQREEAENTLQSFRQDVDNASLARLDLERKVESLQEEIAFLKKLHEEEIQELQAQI
T8 sequence (P08670 99-249): as the sequence (P08670 99-249 E172K) above, with K74E counted along it
T6 sequence (P08670 99-249 E180K): as the sequence (P08670 99-249 E172K) above, with K74E, E82K counted along it
T9 sequence (P08670 99-249 E172K): as the sequence (P08670 99-249 E172K) above
T11 sequence (P08670 99-249 E229K): as the sequence (P08670 99-249 E172K) above, with K74E, E131K counted along it
T13 sequence (P08670 99-249 D176K): as the sequence (P08670 99-249 E172K) above, with K74E, D78K counted along it
T12 sequence (P08670 99-249 E180K): as the sequence (P08670 99-249 E172K) above, with K74E, E82K counted along it
T10 sequence (P08670 99-249 D162K): as the sequence (P08670 99-249 E172K) above, with D64K, K74E counted along it

With B1, the dissociation constant Kd in assay [1] is 59 µM and 66 µM and 70 µM and 85 µM; in assay [2], 31 µM and 32 µM and 30.2 µM; in assay [3], 59 µM and 69 µM and 71 µM and 66 µM; with vimentinROD E180K, 8 µM and 4 µM and 3 µM and 5.7 µM; in the assay with vimentinROD E172K it was 26 µM and 24 µM and 27 µM and 29 µM.
Take B2: the dissociation constant Kd is 31 ± 2 µM in [4]; 27 ± 4 µM in [5]; 70.5 ± 3.8 µM in assay [6]; 68 ± 4 µM in [7]; 16 ± 2 µM in assay [8]; 6 ± 2 µM in assay [9].
Consider B3, for which the dissociation constant (Kd) was determined as 23 ± 4 µM in assay [10] and 200 ± 29 µM in assay [6].
Turning to B4, binding in assay [6] was put at a Kd of 380 ± 51 µM.
Still for that read-out and setting: to B5 belongs 135 ± 30 µM; to B6, 300 ± 54 µM; to B7, 48 ± 11 µM.
In the case of B8, the Kd was 351 µM and 382 µM and 444 µM in assay [11]; 312 µM and 306 µM and 273 µM in assay [12]; 143 µM and 145 µM and 123 µM in [13]; 57 µM and 43 µM and 29 µM and 47.9 µM in assay [14]; 210 µM and 160 µM and 240 µM in [15].
In assay [6], B9 yielded a Kd of 600 ± 70 µM.
